Experimental data from the supplement of paper PMC7125110.
± gives the standard error. For part of these data: This sample holds only a part of the variants without activity.

B1: glmS ribozyme (parent)
chain: AUAAAAGCGCCAGAACUACAGAAAUGUAGUUGACGAGGAGGAGGUUUAUCGAAUUUUCGGCGGAUGCCUCCAAA

How the values were obtained:
Conditions in all cases: with glucosamine-6-phosphate
glucosamine-6-phosphate [1] = variants of: B1; assay: self-cleavage kobs at 40 uM GlcN6P; higher = faster cleavage; RNA array
Method in brief: (§1)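 In situ transcription by E. coli RNA polymerase produced barcoded ribozyme variants on sequenced MiSeq chips, and a hybridised Cy3 probe tracked them at 37 °C. Glucosamine-6-phosphate was flowed in at 40 μM to 10 mM in HEPES/KCl/Mg(OAc)2 buffer. kcat and KM were taken from weighted Michaelis–Menten fits of kobs values from exponential decay fits.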

glucosamine-6-phosphate [2] = variants of: B1; assay: self-cleavage kobs at 640 uM GlcN6P; higher = faster cleavage; RNA array
Method in brief: as §1

glucosamine-6-phosphate [3] = variants of: B1; assay: self-cleavage kobs at 2500 uM GlcN6P; higher = faster cleavage; RNA array
Method in brief: as §1

glucosamine-6-phosphate [4] = variants of: B1; assay: self-cleavage kobs at 10000 uM GlcN6P; higher = faster cleavage; RNA array
Method in brief: as §1

glucosamine-6-phosphate [5] = variants of: B1; assay: self-cleavage kobs at 160 uM GlcN6P; higher = faster cleavage; RNA array
Method in brief: as §1

glucosamine-6-phosphate [6] = variants of: B1; assay: kcat; higher = faster cleavage; RNA array
Method in brief: as §1

glucosamine-6-phosphate [7] = variants of: B1; assay: KM; higher = weaker cofactor use; RNA array
Method in brief: as §1

**Q.** Which results are given for A6G G44U?
**A.** self-cleavage kobs at 40 uM GlcN6P (glucosamine-6-phosphate [1]): < 1e-05 s⁻¹; self-cleavage kobs at 640 uM GlcN6P (glucosamine-6-phosphate [2]): < 1e-05 s⁻¹; self-cleavage kobs at 2500 uM GlcN6P (glucosamine-6-phosphate [3]): < 1e-05 s⁻¹; self-cleavage kobs at 10000 uM GlcN6P (glucosamine-6-phosphate [4]): < 1e-05 s⁻¹

**Q.** With A6C A42U as the variant, how does the “self-cleavage kobs at 40 uM GlcN6P” value (glucosamine-6-phosphate [1]) read?
**A.** < 1e-05 s⁻¹

**Q.** What about the “self-cleavage kobs at 160 uM GlcN6P” value (glucosamine-6-phosphate [5]) of the same variant?
**A.** < 1e-05 s⁻¹

**Q.** What about the “self-cleavage kobs at 640 uM GlcN6P” value (glucosamine-6-phosphate [2]) of the same variant?
**A.** < 1e-05 s⁻¹

**Q.** What about the “self-cleavage kobs at 10000 uM GlcN6P” value (glucosamine-6-phosphate [4]) of the same variant?
**A.** < 1e-05 s⁻¹

**Q.** For A6C A42C, which “self-cleavage kobs at 40 uM GlcN6P” value (glucosamine-6-phosphate [1]) is on record?
**A.** < 1e-05 s⁻¹

**Q.** And the “self-cleavage kobs at 160 uM GlcN6P” value (glucosamine-6-phosphate [5])?
**A.** < 1e-05 s⁻¹

**Q.** And the “self-cleavage kobs at 640 uM GlcN6P” value (glucosamine-6-phosphate [2])?
**A.** < 1e-05 s⁻¹

**Q.** What about the “self-cleavage kobs at 10000 uM GlcN6P” value (glucosamine-6-phosphate [4]) of the same variant?
**A.** < 1e-05 s⁻¹

**Q.** For U2C A33G, which “self-cleavage kobs at 40 uM GlcN6P” value (glucosamine-6-phosphate [1]) is on record?
**A.** < 1e-05 s⁻¹

**Q.** What about the “self-cleavage kobs at 160 uM GlcN6P” value (glucosamine-6-phosphate [5]) of the same variant?
**A.** < 1e-05 s⁻¹

**Q.** And the “self-cleavage kobs at 2500 uM GlcN6P” value (glucosamine-6-phosphate [3])?
**A.** < 1e-05 s⁻¹

**Q.** And the “self-cleavage kobs at 10000 uM GlcN6P” value (glucosamine-6-phosphate [4])?
**A.** < 1e-05 s⁻¹

**Q.** For U2A A3U G32A, which “self-cleavage kobs at 40 uM GlcN6P” value (glucosamine-6-phosphate [1]) is on record?
**A.** 7.12e-05 ± 1.6e-05 s⁻¹

**Q.** And the “self-cleavage kobs at 2500 uM GlcN6P” value (glucosamine-6-phosphate [3])?
**A.** 0.0028 ± 0.00085 s⁻¹

**Q.** Which kcat (glucosamine-6-phosphate [6]) does the source give for C67G U69G here?
**A.** < 1e-05 s⁻¹

**Q.** And the “self-cleavage kobs at 160 uM GlcN6P” value (glucosamine-6-phosphate [5])?
**A.** < 1e-05 s⁻¹

**Q.** What about the “self-cleavage kobs at 10000 uM GlcN6P” value (glucosamine-6-phosphate [4]) of the same variant?
**A.** < 1e-05 s⁻¹

**Q.** Which results are given for C67G U69C?
**A.** kcat (glucosamine-6-phosphate [6]): 0.00123 ± 0.00012 s⁻¹; KM (glucosamine-6-phosphate [7]): 958 ± 170 µM; self-cleavage kobs at 40 uM GlcN6P (glucosamine-6-phosphate [1]): 5.09e-05 ± 1.4e-05 s⁻¹; self-cleavage kobs at 160 uM GlcN6P (glucosamine-6-phosphate [5]): 0.000179 ± 3.4e-05 s⁻¹; self-cleavage kobs at 640 uM GlcN6P (glucosamine-6-phosphate [2]): 0.000506 ± 9.2e-05 s⁻¹; self-cleavage kobs at 2500 uM GlcN6P (glucosamine-6-phosphate [3]): 0.00077 ± 0.00014 s⁻¹; self-cleavage kobs at 10000 uM GlcN6P (glucosamine-6-phosphate [4]): 0.00127 ± 0.0002 s⁻¹

**Q.** Which kcat (glucosamine-6-phosphate [6]) does the source give for C70G C71U here?
**A.** 0.000112 ± 1.4e-05 s⁻¹

**Q.** What about the KM (glucosamine-6-phosphate [7]) of the same variant?
**A.** 401 ± 170 µM

**Q.** What about the “self-cleavage kobs at 160 uM GlcN6P” value (glucosamine-6-phosphate [5]) of the same variant?
**A.** 5.07e-05 ± 7.8e-06 s⁻¹

**Q.** And the “self-cleavage kobs at 640 uM GlcN6P” value (glucosamine-6-phosphate [2])?
**A.** 6.12e-05 ± 4.8e-06 s⁻¹

**Q.** What about the “self-cleavage kobs at 2500 uM GlcN6P” value (glucosamine-6-phosphate [3]) of the same variant?
**A.** 0.000102 ± 8.1e-06 s⁻¹

**Q.** What about the “self-cleavage kobs at 10000 uM GlcN6P” value (glucosamine-6-phosphate [4]) of the same variant?
**A.** 0.00011 ± 8.6e-06 s⁻¹

**Q.** With A6C A52U C67G as the variant, how does the “self-cleavage kobs at 40 uM GlcN6P” value (glucosamine-6-phosphate [1]) read?
**A.** < 1e-05 s⁻¹

**Q.** With A39C C50U as the variant, how does the KM (glucosamine-6-phosphate [7]) read?
**A.** 1080 ± 200 µM

**Q.** Which “self-cleavage kobs at 40 uM GlcN6P” value (glucosamine-6-phosphate [1]) does the source give for A6C C34U here?
**A.** < 1e-05 s⁻¹

**Q.** What about the “self-cleavage kobs at 160 uM GlcN6P” value (glucosamine-6-phosphate [5]) of the same variant?
**A.** < 1e-05 s⁻¹

**Q.** And the “self-cleavage kobs at 640 uM GlcN6P” value (glucosamine-6-phosphate [2])?
**A.** < 1e-05 s⁻¹

**Q.** What about the “self-cleavage kobs at 2500 uM GlcN6P” value (glucosamine-6-phosphate [3]) of the same variant?
**A.** < 1e-05 s⁻¹

**Q.** What about the “self-cleavage kobs at 10000 uM GlcN6P” value (glucosamine-6-phosphate [4]) of the same variant?
**A.** < 1e-05 s⁻¹

**Q.** For A6G C16U U30A G43U G62U C70A, which “self-cleavage kobs at 40 uM GlcN6P” value (glucosamine-6-phosphate [1]) is on record?
**A.** < 1e-05 s⁻¹

**Q.** And the “self-cleavage kobs at 10000 uM GlcN6P” value (glucosamine-6-phosphate [4])?
**A.** < 1e-05 s⁻¹

**Q.** How did the kcat (glucosamine-6-phosphate [6]) turn out when U65G G66U was run?
**A.** 0.00147 ± 0.00011 s⁻¹

**Q.** What about the KM (glucosamine-6-phosphate [7]) of the same variant?
**A.** 2310 ± 320 µM

**Q.** What about the “self-cleavage kobs at 40 uM GlcN6P” value (glucosamine-6-phosphate [1]) of the same variant?
**A.** 1.83e-05 ± 8e-06 s⁻¹

**Q.** And the “self-cleavage kobs at 160 uM GlcN6P” value (glucosamine-6-phosphate [5])?
**A.** 9.38e-05 ± 2.2e-05 s⁻¹

**Q.** What about the “self-cleavage kobs at 640 uM GlcN6P” value (glucosamine-6-phosphate [2]) of the same variant?
**A.** 0.000342 ± 5.3e-05 s⁻¹

**Q.** And the “self-cleavage kobs at 2500 uM GlcN6P” value (glucosamine-6-phosphate [3])?
**A.** 0.000789 ± 0.0001 s⁻¹

**Q.** And the “self-cleavage kobs at 10000 uM GlcN6P” value (glucosamine-6-phosphate [4])?
**A.** 0.00117 ± 0.00012 s⁻¹

**Q.** Which results are given for A6C G41A?
**A.** self-cleavage kobs at 40 uM GlcN6P (glucosamine-6-phosphate [1]): < 1e-05 s⁻¹; self-cleavage kobs at 640 uM GlcN6P (glucosamine-6-phosphate [2]): < 1e-05 s⁻¹; self-cleavage kobs at 2500 uM GlcN6P (glucosamine-6-phosphate [3]): < 1e-05 s⁻¹

**Q.** Which results are given for A6C G62A?
**A.** self-cleavage kobs at 40 uM GlcN6P (glucosamine-6-phosphate [1]): < 1e-05 s⁻¹; self-cleavage kobs at 160 uM GlcN6P (glucosamine-6-phosphate [5]): < 1e-05 s⁻¹; self-cleavage kobs at 640 uM GlcN6P (glucosamine-6-phosphate [2]): < 1e-05 s⁻¹

**Q.** For C34U A42U, which KM (glucosamine-6-phosphate [7]) is on record?
**A.** 70.4 ± 29 µM

**Q.** For A36C C61U, which KM (glucosamine-6-phosphate [7]) is on record?
**A.** 44.5 ± 18 µM

**Q.** With A6C G9C C11U C34G G38A U55C G59A C67U as the variant, how does the “self-cleavage kobs at 40 uM GlcN6P” value (glucosamine-6-phosphate [1]) read?
**A.** < 1e-05 s⁻¹

**Q.** And the “self-cleavage kobs at 10000 uM GlcN6P” value (glucosamine-6-phosphate [4])?
**A.** < 1e-05 s⁻¹

**Q.** Which results are given for A6G A33U C58G C67U C71A?
**A.** self-cleavage kobs at 40 uM GlcN6P (glucosamine-6-phosphate [1]): 5.47e-05 ± 2.5e-05 s⁻¹; self-cleavage kobs at 160 uM GlcN6P (glucosamine-6-phosphate [5]): 9.68e-05 ± 2.9e-05 s⁻¹; self-cleavage kobs at 640 uM GlcN6P (glucosamine-6-phosphate [2]): 0.000593 ± 0.00019 s⁻¹; self-cleavage kobs at 2500 uM GlcN6P (glucosamine-6-phosphate [3]): 0.000109 ± 4.9e-05 s⁻¹

**Q.** What does the source list for A6G A14G G32C G44A A53C U65G C68U?
**A.** self-cleavage kobs at 40 uM GlcN6P (glucosamine-6-phosphate [1]): < 1e-05 s⁻¹; self-cleavage kobs at 2500 uM GlcN6P (glucosamine-6-phosphate [3]): < 1e-05 s⁻¹
